One may read the stoichiometry N as a count of units in the complex or per binding partner.

This experiment concerns the target NsrR, response regulator from Streptococcus agalactiae COH1 (full length) (Streptococcus agalactiae COH1). The experiment is described as follows: SEC; Superdex 200 GL 10/300, buffer C (25 mM Tris pH 9.0, 50 mM NaCl, 2 mM PMSF); column calibrated with proteins of known molecular weight. (Size exclusion chromatography separates by hydrodynamic size, large species first.)

As to “NsrR, response regulator from Streptococcus agalactiae COH1 (full length) (natural protein)”, the stoichiometry N was 2.

The record behind these values is publication PMC4773095.
